Experimental data from US8242083B2, “Kinase substrates” (PerkinElmer Health Sciences, Inc., priority 2008, dated 2012).

Key:
Format in all cases: biochemical
IRR = IRR (Homo sapiens, UniProt P14616); assay: TR-FRET kinase assay, IRR; conditions: Kinase Concentration 0.5 nM; 50 nM ULight-labeled substrate, 200 micromolar ATP, 2 hours
Description: (§1) TR-FRET kinase assays are performed under standardized conditions: various individual kinases are incubated with 50 nM of kinase substrate BRB1 labeled with the TR-FRET acceptor dye ULight (PerkinElmer) and 200 micromolar ATP in 10 μL of kinase assay buffer (50 mM HEPES pH7.5, 10 mM MgCl2, 3 mM MnCl2, 1 mM EGTA, 2 mM DTT and 0.01% Tween-20) for 2 hours at room temperature. Reactions are stopped with EDTA, and anti-phospho-tyrosine antibodies (clone PT66) labeled with the TR-FRET europium chelate donor dye are added to a final concentration of 2 nM in a final volume of 20 μL. The TR-FRET signal emitted at 665 nm is read one hour after the addition of antibodies using a TR-FRET plate reader such as the Envision® Multilabel Plate reader (PerkinElmer). The emitted signal at 665 nm is proportional to the extent of peptide phosphorylation, Control reactions indicative of background are performed excluding ATP from the reaction.
(§2) Assay conditions are identical to those used described for FIG. 1.

DDR1 = DDR1 (Homo sapiens, UniProt Q08345); assay: TR-FRET kinase assay, DDR1; conditions: Kinase Concentration 0.5 nM; 50 nM ULight-labeled substrate, 200 micromolar ATP, 2 hours
DDR1, sequence (Q08345 19-913, species assumed): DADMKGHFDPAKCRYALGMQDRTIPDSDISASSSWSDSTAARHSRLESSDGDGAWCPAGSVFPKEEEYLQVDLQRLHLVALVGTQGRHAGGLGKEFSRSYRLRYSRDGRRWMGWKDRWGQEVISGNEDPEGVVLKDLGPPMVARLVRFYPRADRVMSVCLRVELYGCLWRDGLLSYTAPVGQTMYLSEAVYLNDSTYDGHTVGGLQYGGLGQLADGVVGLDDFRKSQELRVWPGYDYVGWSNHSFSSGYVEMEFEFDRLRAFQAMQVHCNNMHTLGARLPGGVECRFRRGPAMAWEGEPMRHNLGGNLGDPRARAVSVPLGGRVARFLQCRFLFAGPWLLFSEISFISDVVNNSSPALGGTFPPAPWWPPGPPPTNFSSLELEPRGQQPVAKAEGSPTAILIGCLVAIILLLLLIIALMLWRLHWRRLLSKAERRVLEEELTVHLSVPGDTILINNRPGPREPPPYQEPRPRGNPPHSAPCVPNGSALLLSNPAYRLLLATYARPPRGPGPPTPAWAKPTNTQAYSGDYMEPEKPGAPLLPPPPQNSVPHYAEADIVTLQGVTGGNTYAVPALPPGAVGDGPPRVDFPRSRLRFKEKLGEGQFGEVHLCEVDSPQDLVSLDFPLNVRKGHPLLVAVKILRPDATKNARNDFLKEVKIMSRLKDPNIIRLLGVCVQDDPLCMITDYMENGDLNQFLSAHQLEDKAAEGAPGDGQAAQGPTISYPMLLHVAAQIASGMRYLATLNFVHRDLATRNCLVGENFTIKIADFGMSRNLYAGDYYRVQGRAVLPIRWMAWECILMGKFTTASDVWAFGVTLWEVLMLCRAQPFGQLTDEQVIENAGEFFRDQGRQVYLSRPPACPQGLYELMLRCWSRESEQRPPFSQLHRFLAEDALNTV
Description: as §1, §2

ITK = biological target: T1, ITK (Homo sapiens, UniProt Q08881); assay: TR-FRET kinase assay, ITK; conditions: Kinase Concentration 0.5 nM; 50 nM ULight-labeled substrate, 200 micromolar ATP, 2 hours
T1 sequence (Q08881 1-620): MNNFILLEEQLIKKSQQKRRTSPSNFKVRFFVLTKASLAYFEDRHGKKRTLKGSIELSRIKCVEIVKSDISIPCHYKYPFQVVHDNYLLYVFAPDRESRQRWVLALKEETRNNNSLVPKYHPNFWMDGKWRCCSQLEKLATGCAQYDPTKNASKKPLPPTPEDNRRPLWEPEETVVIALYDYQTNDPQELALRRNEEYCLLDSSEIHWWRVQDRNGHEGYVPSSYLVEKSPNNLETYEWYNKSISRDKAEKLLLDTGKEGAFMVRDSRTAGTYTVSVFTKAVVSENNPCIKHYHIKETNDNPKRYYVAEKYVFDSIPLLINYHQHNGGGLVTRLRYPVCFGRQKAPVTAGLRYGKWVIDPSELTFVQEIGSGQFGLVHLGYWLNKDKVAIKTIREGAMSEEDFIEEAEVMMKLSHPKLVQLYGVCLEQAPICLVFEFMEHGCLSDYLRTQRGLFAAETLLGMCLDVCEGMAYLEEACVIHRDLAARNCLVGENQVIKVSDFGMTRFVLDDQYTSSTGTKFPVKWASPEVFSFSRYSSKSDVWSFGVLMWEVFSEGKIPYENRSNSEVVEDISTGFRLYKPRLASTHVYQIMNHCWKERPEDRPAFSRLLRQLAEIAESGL
Description: as §1, §2

AXL = AXL (Homo sapiens, UniProt P30530); assay: TR-FRET kinase assay, AXL; conditions: Kinase Concentration 4 nM; 50 nM ULight-labeled substrate, 200 micromolar ATP, 2 hours
Description: as §1, §2

IRR, sequence (P14616 27-1297, species assumed): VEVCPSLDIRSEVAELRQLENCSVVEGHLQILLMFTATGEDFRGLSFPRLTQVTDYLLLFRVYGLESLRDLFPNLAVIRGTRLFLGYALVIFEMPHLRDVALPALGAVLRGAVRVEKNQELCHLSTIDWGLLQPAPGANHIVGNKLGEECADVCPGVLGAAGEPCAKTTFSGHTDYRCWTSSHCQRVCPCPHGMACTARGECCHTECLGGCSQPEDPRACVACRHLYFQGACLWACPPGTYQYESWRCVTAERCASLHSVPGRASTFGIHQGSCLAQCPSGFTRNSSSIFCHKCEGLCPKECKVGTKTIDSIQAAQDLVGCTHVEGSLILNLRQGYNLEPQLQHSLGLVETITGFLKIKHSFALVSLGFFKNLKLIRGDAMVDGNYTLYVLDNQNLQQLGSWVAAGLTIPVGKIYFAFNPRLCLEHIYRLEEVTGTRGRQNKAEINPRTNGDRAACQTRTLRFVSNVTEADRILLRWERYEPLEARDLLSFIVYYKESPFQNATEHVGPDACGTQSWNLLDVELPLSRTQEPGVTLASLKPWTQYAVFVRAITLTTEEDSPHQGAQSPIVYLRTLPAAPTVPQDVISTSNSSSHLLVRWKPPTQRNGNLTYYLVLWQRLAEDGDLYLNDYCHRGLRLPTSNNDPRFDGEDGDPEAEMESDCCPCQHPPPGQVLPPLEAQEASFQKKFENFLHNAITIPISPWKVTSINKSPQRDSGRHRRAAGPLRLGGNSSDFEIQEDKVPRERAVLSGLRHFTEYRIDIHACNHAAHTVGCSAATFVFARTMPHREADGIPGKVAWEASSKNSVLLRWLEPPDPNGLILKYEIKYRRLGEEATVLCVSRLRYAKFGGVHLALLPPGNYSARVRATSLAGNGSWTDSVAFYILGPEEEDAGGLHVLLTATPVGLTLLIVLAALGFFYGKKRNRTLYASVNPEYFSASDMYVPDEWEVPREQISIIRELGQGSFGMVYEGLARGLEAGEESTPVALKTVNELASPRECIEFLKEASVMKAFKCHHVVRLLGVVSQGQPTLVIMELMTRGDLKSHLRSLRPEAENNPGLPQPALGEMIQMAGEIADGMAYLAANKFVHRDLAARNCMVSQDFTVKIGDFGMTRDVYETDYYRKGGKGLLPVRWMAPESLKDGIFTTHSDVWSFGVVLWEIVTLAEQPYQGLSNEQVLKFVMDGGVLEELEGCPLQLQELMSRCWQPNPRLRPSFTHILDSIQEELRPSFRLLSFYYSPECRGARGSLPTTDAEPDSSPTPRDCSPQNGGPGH

C AYE AYE AYE K EYA EYA EYA K AYA EYE R (CAYEAYEAYEKEYAEYAEYAKAYAEYER; tyrosine kinase substrate peptide) [BRB1]
Signal to Noise ratio with BRB1 Peptide (IRR): 19.2
Signal to Noise ratio with BRB1 Peptide (DDR1): 1.0
Signal to Noise ratio with BRB1 Peptide (ITK): 8.4
Signal to Noise ratio with BRB1 Peptide (AXL): 1.8
